Positions count from the first letter of the chain named. In names and notes the source's numbering stands.
T1: recombinant human C1r2s2 tetramer (human, UniProt P09871 16-688; P00736 18-705)
T1 construct: C1s and C1r co-expressed in HEK293/FreeStyle 293-F and purified from conditioned medium
T1 chain 1: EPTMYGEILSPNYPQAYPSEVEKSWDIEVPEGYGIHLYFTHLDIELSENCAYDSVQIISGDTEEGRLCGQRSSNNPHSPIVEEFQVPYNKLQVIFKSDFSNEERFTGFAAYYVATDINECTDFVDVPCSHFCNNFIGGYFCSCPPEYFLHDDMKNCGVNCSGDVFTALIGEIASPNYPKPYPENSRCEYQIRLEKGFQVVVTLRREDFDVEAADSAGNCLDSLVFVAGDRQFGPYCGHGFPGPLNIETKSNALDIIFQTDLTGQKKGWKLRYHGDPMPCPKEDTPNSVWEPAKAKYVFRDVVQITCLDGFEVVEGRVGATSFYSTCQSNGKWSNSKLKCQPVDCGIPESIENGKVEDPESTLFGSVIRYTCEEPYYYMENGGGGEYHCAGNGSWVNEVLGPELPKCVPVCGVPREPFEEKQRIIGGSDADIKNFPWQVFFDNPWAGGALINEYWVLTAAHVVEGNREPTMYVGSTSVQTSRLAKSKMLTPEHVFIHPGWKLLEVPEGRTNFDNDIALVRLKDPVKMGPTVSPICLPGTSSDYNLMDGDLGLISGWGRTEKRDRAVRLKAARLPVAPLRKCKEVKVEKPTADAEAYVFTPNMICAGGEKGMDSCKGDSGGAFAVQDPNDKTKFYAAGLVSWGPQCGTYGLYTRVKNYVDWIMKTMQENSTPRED
T1 chain 2: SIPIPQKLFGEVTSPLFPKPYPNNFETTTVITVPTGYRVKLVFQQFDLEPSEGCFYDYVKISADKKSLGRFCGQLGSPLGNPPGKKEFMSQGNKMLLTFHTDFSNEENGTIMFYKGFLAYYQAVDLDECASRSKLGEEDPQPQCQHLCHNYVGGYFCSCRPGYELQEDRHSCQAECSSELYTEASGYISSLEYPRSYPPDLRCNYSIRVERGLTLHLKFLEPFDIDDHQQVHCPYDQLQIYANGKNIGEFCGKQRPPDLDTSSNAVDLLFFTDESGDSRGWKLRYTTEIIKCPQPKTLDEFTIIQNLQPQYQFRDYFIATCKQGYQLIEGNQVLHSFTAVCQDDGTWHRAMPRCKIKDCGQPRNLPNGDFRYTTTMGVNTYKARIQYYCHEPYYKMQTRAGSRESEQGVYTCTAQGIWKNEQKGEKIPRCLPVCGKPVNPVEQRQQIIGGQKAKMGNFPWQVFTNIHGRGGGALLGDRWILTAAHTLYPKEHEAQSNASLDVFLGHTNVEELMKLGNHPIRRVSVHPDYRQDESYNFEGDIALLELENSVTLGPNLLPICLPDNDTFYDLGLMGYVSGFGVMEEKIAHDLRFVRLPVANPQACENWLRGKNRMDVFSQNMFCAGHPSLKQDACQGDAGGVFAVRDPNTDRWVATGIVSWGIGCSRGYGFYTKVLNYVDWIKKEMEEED

B1: COS0637cc-TT91R (antibody, human IgG1)
heavy: QSLEESGGRLVTPGTPLTLTCTASGFSLSAYAMNWVRQAPGKGLEWIGLIYGSGSTFYASWAKGRFTISKTSTTVDLKMTSLTTEDTATYFCARGRSVNYNSDFKLWGPGTLVTVSSASTKGPSVFPLAPSSKSTSGGTAALGCLVKDYFPEPVTVSWNSGALTSGVHTFPAVLQSSGLYSLSSVVTVPSSSLGTQTYICNVNHKPSNTKVDKRVEPKSCDKTHTCPPCPAPEYLGGDSVFLFPPKPKDVLMISRTPEVTCVVIDVSHEDPEVKFNWYVDGVEVHNAKTKPREEQYNSTYRVVSVLPVLHRDWLNGKEYKCKVSNKALPKPIEKTISKAKGQRREPQVYTLPPSREEMTKNQVSLTCLVKGFYPSDIAVEWESNGQPENNYKTTPPVLDSDGSFFLYSKLTVDKSRWQQGNVFSCSVLHEALHAHTTRKELSLSP
light: QVLTQTPSSVSAAVGGTVTINCQASQSLHDKKNLAWYQHKPGQRPNLLIYGASTLESGVPSRFKGSGSGTEYTLTISDLECDDAAAYYCQGEFSCSSADCNTFGGGTKVEIKRTVAAPSVFIFPPSDEQLKSGTASVVCLLNNFYPREAKVQWKVDNALQSGNSQESVTEQDSKDCTYSLSSTLTLSKADYEKHKVYACEVTHQGLSSPVTKSFNRGEC
notes: Rabbit variable regions (chimera) with modified human IgG1 CH TT91R and modified human CL KOMC; also called COS637cc-TT91R
B2: AL0746 (antibody, human IgG1, kappa, V domains shown)
VH: QVQLVESGGGVVQPGRSLRLSCAASGFTFSAYAMNWIRQPPGKGLEWIGLIYGSGSTFYASWAKGRVTISVDTSKNQFSLKLSSVTAADTAVYYCARGRSVNYNSDFHLWGQGTLVTVSS
VL: DIQMTQSPSSLSASVGDRVTITCQASQSLHDKKNLAWYQQKPGQPPKLLIYGASTLESGVPSRFSGSGSGTDFTLTISSLQPEDFATYYCQGEFSRSSADYNTFGQGTKVEIKR
notes: COS0637temp with VL C94R/C95dY (Kabat), already in the VL entry
B3: COS0637pHv7-TT91R (antibody, V domains shown)
VH: B2 VH with S56H, T57E, K64E, G65E, V101K
VL: B2 VL with S28I, G52Q, T55Q, Q91H, R96Y, Y101L
B4: COS0637pHv1-TT91R (antibody, V domains shown)
VH: B2 VH with G55K, K64E, V101K
VL: B2 VL with R96C, Y101C
B5: COS0637pHv2-TT91R (antibody, V domains shown)
VH: B2 VH with T28R, S54K, G65E
VL: B2 VL with R96C, Y101C
B6: COS0637pHv4-TT91R (antibody, V domains shown)
VH: B2 VH with T28S, S56H, T57E, K64E, G65E, V101K, N104V, D106G
VL: B2 VL with S28I, G52Q, T55Q, Q91H, R96Y, S97E, Y101L, T103Q
B7: COS0637pHv9-TT91R (antibody, V domains shown)
VH: B2 VH with S56H, T57E, K64E, G65E, V101K
VL: B2 VL with S26N, S28I, G52Q, T55Q, L56R, Q91H, S95P, R96Y, S97E, Y101L
B8: AL0752 (antibody, human IgG1, kappa, V domains shown)
VH: B2 VH
VL: B2 VL with R96V, Y101A
notes: COS0637temp with VL C94V/C95dA (Kabat), already in the VL entry
B9: COS0637pHv6-TT91R (antibody, V domains shown)
VH: B2 VH with T28S, S56H, T57E, K64E, G65E, V101K, N104V, D106G
VL: B2 VL with S26Q, S28I, K33R, G52Q, T55Q, Q91H, R96Y, S97E, Y101L
B10: AL0751 (antibody, human IgG1, kappa, V domains shown)
VH: B2 VH
VL: B2 VL with R96A, Y101V
notes: COS0637temp with VL C94A/C95dV (Kabat), already in the VL entry
B11: AL0747 (antibody, human IgG1, kappa, V domains shown)
VH: B2 VH
VL: B2 VL with R96M, Y101R
notes: COS0637temp with VL C94M/C95dR (Kabat), already in the VL entry
B12: AL0748 (antibody, human IgG1, kappa, V domains shown)
VH: B2 VH
VL: B2 VL with R96I, Y101F
notes: COS0637temp with VL C94I/C95dF (Kabat), already in the VL entry
B13: COS0637h-TT91R (antibody, human IgG1, V domains shown)
VH: B2 VH with H108K
VL: B2 VL with R96C, Y101C
notes: Humanized COS0637cc; modified human IgG1 CH TT91R, human CL SK1
B14: AL0753 (antibody, human IgG1, kappa, V domains shown)
VH: B2 VH
VL: B2 VL with R96V, Y101V
notes: COS0637temp with VL C94V/C95dV (Kabat), already in the VL entry
B15: AL0749 (antibody, human IgG1, kappa, V domains shown)
VH: B2 VH
VL: B2 VL with R96L, Y101R
notes: COS0637temp with VL C94L/C95dR (Kabat), already in the VL entry
B16: COS0637pHv8-TT91R (antibody, V domains shown)
VH: B2 VH with S56H, T57E, K64E, G65E, V101K
VL: B2 VL with S26N, S28I, Q91H, R96Y, Y101L
B17: AL0750 (antibody, human IgG1, kappa, V domains shown)
VH: B2 VH
VL: B2 VL with R96M, Y101L
notes: COS0637temp with VL C94M/C95dL (Kabat), already in the VL entry

Assays:
[1] = target: T1, recombinant human C1r2s2 tetramer; test: SPR (BIACORE T200), 37 C, ratio of KD at pH 5.8 to KD at pH 7.4
Procedure: (§1) KD (dissociation constant) value of each samples at pH 7.4 and pH 5.8 are determined at 37 degrees C. using BIACORE® T200 instrument (GE Healthcare). Purified Mouse Anti-Human Ig kappa Light Chain (GE Healthcare) can be immobilized onto all flow cells of a CMS sensor chip using an amine coupling kit (GE Healthcare). 20 mM ACES, 150 mM NaCl, 1.2 mM CaCl2, 1 mg/mL BSA (IgG-free), 1 mg/mL CMD, 0.05% Tween® 20, 0.005% NaN3, pH 7.4 or pH 5.8 buffer were used as running buffer. Each antibody can be captured onto the sensor surface by Anti-Human Ig kappa Light chain. Antibody capture levels are aimed at 50 resonance unit (RU). […] Sensor surface is regenerated each cycle with, e.g., Glycine pH 2.0 (GE Healthcare). KD values were obtained using BIACORE® T200 Evaluation software, version 2.0 (GE Healthcare).

[2] = target: T1, recombinant human C1r2s2 tetramer; test: SPR (BIACORE T200), 37 C, Ab captured via anti-human Ig kappa, human C1r2s2 as analyte, pH 5.8
Procedure: as §1

[3] = target: T1, recombinant human C1r2s2 tetramer; test: SPR (BIACORE T200), 37 C, Ab captured via anti-human Ig kappa, human C1r2s2 as analyte, pH 7.4
Procedure: as §1

[4] = target: T1, recombinant human C1r2s2 tetramer; test: SPR (BIACORE), antibody captured by ProL, human C1r2s2 injected at 100 nM, pH 7.4, 37 C
Procedure: Analysis of interaction between antibody variants and the human C1r2s2 prepared as mentioned above was carried out at pH7.4, at 37 degrees C. using BIACORE® T200 instrument (GE Healthcare) or BIACORE® 4000 (GE Healthcare). ProL (BioVision) was immobilized onto a CM4 sensorchip using amine coupling kit (GE Healthcare) according to the recommended settings by GE Healthcare. Antibodies and analytes were diluted into the respective running buffers, ACES pH7.4 (20 mM ACES (N-(2-Acetamido)-2-aminoethanesulfonic acid), 150 mM NaCl, 1.2 mM CaCl2, 1 mg/ml bovine serum albumin (BSA), 1 mg/ml CMD (CM-Dextran sodium salt), 0.05% Tween® 20 (polysorbate 20), 0.005 w/v % NaN3). Each antibody was captured onto the sensor surface by ProL. Antibody capture levels were aimed at 200 resonance units (RU). Then, recombinant human C1r2s2 was injected at concentrations of 25 and 100 nM followed by dissociation at pH7.4. The surface was regenerated using 10 mM Glycine-HCl, pH1.5.

KD (pH 5.8)/KD (pH 7.4) [1]	Kd [2]	Kd [3]	binding result [4]	Binder
10	43.3 nM	4.48 nM		B1
			no binding (tested: 100 nM)	B2
72	353 nM	4.9 nM		B3
209	3600 nM	17.2 nM		B4
44	588 nM	13.4 nM		B5
99	811 nM	8.23 nM		B6
45	157 nM	3.48 nM		B7
			no binding (tested: 100 nM)	B8
100	838 nM	8.39 nM		B9
			no binding (tested: 100 nM)	B10
			no binding (tested: 100 nM)	B11
			no binding (tested: 100 nM)	B12
14	362 nM	25.4 nM		B13
			no binding (tested: 100 nM)	B14
			no binding (tested: 100 nM)	B15
117	874 nM	7.46 nM		B16
			no binding (tested: 100 nM)	B17

From patent US20240092889A1 (Chugai, published 2024)
